Assay results published in PMC12225977 (PLOS Computational Biology, 2025).

Biological target: the molecule itself
Assay: native MS

B1: Francisella tularensis dihydrolipoyl dehydrogenase (IPD) (enzyme)
chain: MSDIKTQVVVLGSGPGGYSAAFRAADLGLEVVLVERYAEIGGVCLNVGCIPSKAMLHIAKVINEARHLESLGIIEMGGLKINRENLLKYKDGVIGKLTGGLKGMAQMRKVKIVQGYGKFTSDKELAVEAADGKVTKIAFDNCIIAAGSSVIKLPFVPEDDRIIDSTGALEMKEIPETMLVVGGGIIGLEMAQVYSELGTKITVVEFADQLMNGVDKDLVKAYQKVNSRYDVRLKTAVTAMEAKEDGIYVTMEGDHPAKDERFDRVLMAIGRKPNGKLIDAEKAGVKVDERGFIPVDKQLRTNVPHIFAIGDIVGQPMLAHKAVPEGRTAAEVISGLNHSFDPLVIPSVAYTDPEVAWVGETETSAKAKGIKYEKGVFPWAASGRSLSIDRSEGMTKILFDENHKIIGASIVGTHAGELISEAAIAIEMGCDAEDIALTVHPHPTLSESLMMATEVYEGTATDLPPQKKKK
notes: also called Francisella IPD; MGH6-IPD
stoichiometry N: 2
